# Patent US11851495 (Boehringer Ingelheim, dated 2023)
# Numbering of substitutions follows the chain as printed.
# B1: CDH17v1/TR2v1 (bispecific antibody, human IgG1, kappa)
# heavy: not shown
# light: DIVMSQSPSSLAVSVGEKVTMSCKSSQSLLHSSNQKNYLAWYQQKPGQSPKVLIYWASTRESGVPDRFTGSGSGTDFTLTITSVKSEDLAVYYCQQYYSYPWTFGGGTRLEIKRTVAAPSVFIFPPSDEQLKSGTASVVCLLNNFYPREAKVQWKVDNALQSGNSQESVTEQDSKDSTYSLSSTLTLSKADYEKHKVYACEVTHQGLSSPVTKSFNRGEC
# B2: CDH17v1/TR2#8-(IgG1 KO) (bispecific antibody)
# heavy: not shown
# light: B1 light
# B3: CDH17v1/TR2#2-(IgG1 KO) (bispecific antibody)
# heavy: not shown
# light: B1 light
# B4: CDH17v1/TR2v1-(IgG1 KO) (bispecific antibody)
# heavy: not shown
# light: B1 light
# B5: CDH17v1/TR2#3-(IgG1 KO) (bispecific antibody)
# heavy: not shown
# light: B1 light
# B6: CDH17v1/TR2#1-(IgG1 KO) (bispecific antibody)
# heavy: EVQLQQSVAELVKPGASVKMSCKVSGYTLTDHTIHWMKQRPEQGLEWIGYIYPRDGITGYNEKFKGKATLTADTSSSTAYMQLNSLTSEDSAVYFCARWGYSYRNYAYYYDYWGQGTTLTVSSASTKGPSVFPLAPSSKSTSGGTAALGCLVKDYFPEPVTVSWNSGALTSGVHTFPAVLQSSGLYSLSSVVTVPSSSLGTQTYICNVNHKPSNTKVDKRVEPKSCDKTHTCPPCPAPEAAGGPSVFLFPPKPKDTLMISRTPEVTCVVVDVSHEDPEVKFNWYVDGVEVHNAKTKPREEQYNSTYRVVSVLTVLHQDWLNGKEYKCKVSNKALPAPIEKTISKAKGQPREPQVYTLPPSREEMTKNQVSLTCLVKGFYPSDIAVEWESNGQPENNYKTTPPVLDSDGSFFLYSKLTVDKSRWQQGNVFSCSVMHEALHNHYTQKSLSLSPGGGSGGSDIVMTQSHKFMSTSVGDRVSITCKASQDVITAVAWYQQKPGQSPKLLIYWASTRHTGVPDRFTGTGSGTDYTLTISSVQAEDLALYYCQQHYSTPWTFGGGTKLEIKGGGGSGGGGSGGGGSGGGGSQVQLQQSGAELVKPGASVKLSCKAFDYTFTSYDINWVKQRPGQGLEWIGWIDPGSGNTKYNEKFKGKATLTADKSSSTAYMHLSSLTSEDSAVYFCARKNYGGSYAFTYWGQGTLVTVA
# light: B1 light
# B7: CDH17v1/TR2#10-(IgG1 KO) (bispecific antibody)
# heavy: not shown
# light: B1 light
# B8: CDH17H2/TR2v2-(IgG1 KO) (bispecific antibody)
# heavy: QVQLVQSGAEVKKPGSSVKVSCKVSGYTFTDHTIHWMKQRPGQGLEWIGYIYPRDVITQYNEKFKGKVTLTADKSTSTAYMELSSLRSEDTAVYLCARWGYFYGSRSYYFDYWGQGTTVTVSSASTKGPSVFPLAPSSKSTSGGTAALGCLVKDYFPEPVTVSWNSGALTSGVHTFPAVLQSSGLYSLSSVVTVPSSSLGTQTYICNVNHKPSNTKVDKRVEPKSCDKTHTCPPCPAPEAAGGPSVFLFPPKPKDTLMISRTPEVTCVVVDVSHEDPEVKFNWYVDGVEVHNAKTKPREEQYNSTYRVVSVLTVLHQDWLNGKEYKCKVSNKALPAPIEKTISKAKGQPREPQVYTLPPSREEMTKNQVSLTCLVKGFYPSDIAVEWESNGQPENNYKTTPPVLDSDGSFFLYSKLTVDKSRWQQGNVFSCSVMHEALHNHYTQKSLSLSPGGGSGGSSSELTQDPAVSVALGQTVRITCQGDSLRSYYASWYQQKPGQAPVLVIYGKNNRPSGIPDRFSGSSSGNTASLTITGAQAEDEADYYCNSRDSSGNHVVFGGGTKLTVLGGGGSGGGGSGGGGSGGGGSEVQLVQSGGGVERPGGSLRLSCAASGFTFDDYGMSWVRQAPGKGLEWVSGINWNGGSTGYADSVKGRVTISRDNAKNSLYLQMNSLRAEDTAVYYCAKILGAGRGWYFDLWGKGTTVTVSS
# light: DIQMTQSQSSLSASVGDRVGITCKASQNVGTAVAWYQQKPGKAPKLLIYSASNRYTGVPSRFSGSGSGTDFTLTISSLQPKDFATYFCQQYSSYPWTFGQGTKLEIKRTVAAPSVFIFPPSDEQLKSGTASVVCLLNNFYPREAKVQWKVDNALQSGNSQESVTEQDSKDSTYSLSSTLTLSKADYEKHKVYACEVTHQGLSSPVTKSFNRGEC
# B9: CDH17H2/TR2v6-(IgG1 KO) (bispecific antibody)
# heavy: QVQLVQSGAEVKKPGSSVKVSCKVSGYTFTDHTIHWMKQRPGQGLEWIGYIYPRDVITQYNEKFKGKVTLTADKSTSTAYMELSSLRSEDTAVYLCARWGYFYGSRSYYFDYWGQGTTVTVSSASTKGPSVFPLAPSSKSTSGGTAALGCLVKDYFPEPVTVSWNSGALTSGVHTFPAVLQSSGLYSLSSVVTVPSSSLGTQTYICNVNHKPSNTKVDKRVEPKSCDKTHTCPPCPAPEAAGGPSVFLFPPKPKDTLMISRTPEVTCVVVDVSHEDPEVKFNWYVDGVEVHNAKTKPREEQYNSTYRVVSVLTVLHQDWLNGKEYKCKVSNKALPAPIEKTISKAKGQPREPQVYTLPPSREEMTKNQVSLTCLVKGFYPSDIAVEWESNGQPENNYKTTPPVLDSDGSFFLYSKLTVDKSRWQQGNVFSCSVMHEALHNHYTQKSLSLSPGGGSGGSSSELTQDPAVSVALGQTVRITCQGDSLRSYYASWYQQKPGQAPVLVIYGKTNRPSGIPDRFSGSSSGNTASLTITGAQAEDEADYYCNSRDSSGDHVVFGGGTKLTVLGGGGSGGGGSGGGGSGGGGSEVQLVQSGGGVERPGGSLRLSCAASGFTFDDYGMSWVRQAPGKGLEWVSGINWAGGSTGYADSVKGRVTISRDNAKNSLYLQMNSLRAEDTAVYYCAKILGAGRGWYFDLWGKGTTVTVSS
# light: B8 light
# B10: CDH17H2/TR2v4-(IgG1 KO) (bispecific antibody)
# heavy: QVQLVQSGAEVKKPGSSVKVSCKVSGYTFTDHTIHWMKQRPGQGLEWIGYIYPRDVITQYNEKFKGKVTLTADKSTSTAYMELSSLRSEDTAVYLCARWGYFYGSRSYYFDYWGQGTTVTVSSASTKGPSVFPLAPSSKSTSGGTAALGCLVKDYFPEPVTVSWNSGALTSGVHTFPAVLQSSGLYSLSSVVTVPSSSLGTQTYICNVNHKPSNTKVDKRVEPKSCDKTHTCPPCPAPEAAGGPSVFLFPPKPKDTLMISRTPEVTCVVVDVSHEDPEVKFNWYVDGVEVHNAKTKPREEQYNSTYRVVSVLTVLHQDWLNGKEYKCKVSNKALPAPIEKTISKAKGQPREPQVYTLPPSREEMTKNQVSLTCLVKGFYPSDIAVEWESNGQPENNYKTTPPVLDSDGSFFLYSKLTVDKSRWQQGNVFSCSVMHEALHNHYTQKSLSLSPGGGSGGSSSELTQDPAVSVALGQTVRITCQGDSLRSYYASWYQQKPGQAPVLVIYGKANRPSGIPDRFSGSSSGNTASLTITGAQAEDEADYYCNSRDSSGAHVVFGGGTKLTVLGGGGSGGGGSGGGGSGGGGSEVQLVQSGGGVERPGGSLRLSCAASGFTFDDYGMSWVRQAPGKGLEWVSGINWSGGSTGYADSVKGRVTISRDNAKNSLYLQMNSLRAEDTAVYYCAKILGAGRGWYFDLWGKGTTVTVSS
# light: B8 light
# B11: CDH17H2/TR2v5-(IgG1 KO) (bispecific antibody)
# heavy: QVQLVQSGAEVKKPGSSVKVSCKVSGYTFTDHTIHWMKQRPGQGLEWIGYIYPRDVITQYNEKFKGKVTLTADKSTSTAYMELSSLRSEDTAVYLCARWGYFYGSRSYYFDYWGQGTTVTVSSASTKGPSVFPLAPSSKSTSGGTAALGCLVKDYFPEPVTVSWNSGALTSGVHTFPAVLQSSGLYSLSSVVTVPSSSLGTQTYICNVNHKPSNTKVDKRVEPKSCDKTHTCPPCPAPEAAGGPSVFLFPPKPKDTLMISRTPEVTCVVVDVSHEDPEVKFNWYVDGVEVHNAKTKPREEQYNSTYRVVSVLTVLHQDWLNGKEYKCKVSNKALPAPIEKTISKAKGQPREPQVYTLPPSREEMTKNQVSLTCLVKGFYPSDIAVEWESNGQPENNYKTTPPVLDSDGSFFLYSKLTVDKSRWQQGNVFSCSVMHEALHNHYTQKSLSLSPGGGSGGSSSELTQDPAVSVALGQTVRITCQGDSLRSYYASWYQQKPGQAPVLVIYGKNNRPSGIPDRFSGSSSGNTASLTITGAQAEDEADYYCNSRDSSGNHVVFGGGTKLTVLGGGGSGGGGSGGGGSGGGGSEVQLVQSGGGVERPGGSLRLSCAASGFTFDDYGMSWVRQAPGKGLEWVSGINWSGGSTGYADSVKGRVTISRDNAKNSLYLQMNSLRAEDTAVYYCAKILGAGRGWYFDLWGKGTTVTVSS
# light: B8 light
# B12: CDH17H2/TR2v7-(IgG1 KO) (bispecific antibody)
# heavy: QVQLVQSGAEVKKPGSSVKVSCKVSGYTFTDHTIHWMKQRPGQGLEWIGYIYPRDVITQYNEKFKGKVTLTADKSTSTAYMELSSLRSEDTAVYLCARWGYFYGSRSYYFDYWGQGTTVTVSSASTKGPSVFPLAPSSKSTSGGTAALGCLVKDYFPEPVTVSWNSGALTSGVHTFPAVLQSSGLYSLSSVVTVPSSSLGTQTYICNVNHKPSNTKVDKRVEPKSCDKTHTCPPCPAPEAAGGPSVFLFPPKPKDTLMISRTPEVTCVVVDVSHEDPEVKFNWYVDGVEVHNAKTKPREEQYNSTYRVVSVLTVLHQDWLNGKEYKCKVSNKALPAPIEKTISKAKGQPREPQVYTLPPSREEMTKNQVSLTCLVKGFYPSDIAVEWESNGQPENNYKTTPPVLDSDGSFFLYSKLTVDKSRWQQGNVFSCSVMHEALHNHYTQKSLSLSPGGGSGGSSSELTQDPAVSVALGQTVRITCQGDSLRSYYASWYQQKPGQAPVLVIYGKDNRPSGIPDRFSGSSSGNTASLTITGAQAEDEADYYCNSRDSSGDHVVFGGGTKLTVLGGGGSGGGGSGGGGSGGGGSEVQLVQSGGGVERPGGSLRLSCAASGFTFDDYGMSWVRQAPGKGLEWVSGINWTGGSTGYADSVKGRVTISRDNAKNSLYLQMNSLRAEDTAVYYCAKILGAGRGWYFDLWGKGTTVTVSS
# light: B8 light
# B13: CDH17H2/TR2v3-(IgG1 KO) (bispecific antibody)
# heavy: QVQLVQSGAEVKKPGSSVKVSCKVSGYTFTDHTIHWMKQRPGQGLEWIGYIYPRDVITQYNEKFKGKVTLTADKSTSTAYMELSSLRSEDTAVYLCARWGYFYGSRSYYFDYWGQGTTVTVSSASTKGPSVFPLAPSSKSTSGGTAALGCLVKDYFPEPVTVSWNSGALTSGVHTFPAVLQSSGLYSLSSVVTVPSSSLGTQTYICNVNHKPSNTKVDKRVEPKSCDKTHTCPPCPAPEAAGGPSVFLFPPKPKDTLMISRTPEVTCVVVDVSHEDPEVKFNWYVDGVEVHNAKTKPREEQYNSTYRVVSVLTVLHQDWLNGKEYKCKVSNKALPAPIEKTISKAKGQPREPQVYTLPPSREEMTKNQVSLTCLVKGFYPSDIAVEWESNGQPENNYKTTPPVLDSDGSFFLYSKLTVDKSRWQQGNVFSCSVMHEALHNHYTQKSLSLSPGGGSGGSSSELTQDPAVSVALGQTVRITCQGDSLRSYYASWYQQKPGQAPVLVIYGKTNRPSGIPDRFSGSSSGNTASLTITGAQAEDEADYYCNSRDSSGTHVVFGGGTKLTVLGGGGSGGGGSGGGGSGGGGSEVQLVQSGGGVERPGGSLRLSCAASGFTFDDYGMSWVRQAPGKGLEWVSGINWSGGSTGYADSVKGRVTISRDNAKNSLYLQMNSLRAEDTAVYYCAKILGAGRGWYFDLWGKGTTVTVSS
# light: B8 light
# B14: anti-TRAILR2 antibody (anti-TR2v2) (antibody, V domains shown)
# VH: EVQLVQSGGGVERPGGSLRLSCAASGFTFDDYGMSWVRQAPGKGLEWVSGINWNGGSTGYADSVKGRVTISRDNAKNSLYLQMNSLRAEDTAVYYCAKILGAGRGWYFDLWGKGTTVTVSS
# VL: SSELTQDPAVSVALGQTVRITCQGDSLRSYYASWYQQKPGQAPVLVIYGKNNRPSGIPDRFSGSSSGNTASLTITGAQAEDEADYYCNSRDSSGNHVVFGGGTKLTVL
# B15: CDH17A6/TR2v2-(IgG1 KO) (bispecific antibody)
# heavy: not shown
# light: DIVMTQSQKFMSTTVGDRVSITCKASQNVGTGVVWYQQRPGQSPKLLIYSPSNRYTGVPDRFTGSGSGTDFTLTITNIQSEDLADYFCQQYSTYPWTFGGGTKLEIKRTVAAPSVFIFPPSDEQLKSGTASVVCLLNNFYPREAKVQWKVDNALQSGNSQESVTEQDSKDSTYSLSSTLTLSKADYEKHKVYACEVTHQGLSSPVTKSFNRGEC
# B16: CDH17E2/TR2v2-(IgG1 KO) (bispecific antibody)
# heavy: not shown
# light: B15 light with S20N, G32A, V34A, R39K, P51A, I78M, E81K, T93S
# B17: CDH17E9/TR2v2-(IgG1 KO) (bispecific antibody)
# heavy: not shown
# light: DIVMTQSQTFMSTTVGDRVSITCKASQNVGTALAWYQQKPRQSPKLLIYSASNRFTGVPDRFTGSGSGTDFTLTISNMRSEDLADYVCQQYSTYPLTFGSGTKLEIRRTVAAPSVFIFPPSDEQLKSGTASVVCLLNNFYPREAKVQWKVDNALQSGNSQESVTEQDSKDSTYSLSSTLTLSKADYEKHKVYACEVTHQGLSSPVTKSFNRGEC
# B18: anti-CDH17H2 antibody (antibody, V domains shown)
# VH: QVQLVQSGAEVKKPGSSVKVSCKVSGYTFTDHTIHWMKQRPGQGLEWIGYIYPRDVITQYNEKFKGKVTLTADKSTSTAYMELSSLRSEDTAVYLCARWGYFYGSRSYYFDYWGQGTTVTVSS
# VL: DIQMTQSQSSLSASVGDRVGITCKASQNVGTAVAWYQQKPGKAPKLLIYSASNRYTGVPSRFSGSGSGTDFTLTISSLQPKDFATYFCQQYSSYPWTFGQGTKLEIK
# notes: also called parental CDH17 antibody
# Biological target: TNF-related apoptosis-inducing ligand receptor 2 (TRAILR2) (human, UniProt O14763 56-440)
# Experiment: cell-based or functional assay
Binder,"cell viability of Colo-205 cells, 24 h (CellTiter-Glo)","cell viability of Colo-205 cells, 24 h","concentration needed for an effect on viability of HepG2 cells (CDH17 negative), 72 h"
B1,> 1000 fold,,
B2,,0.01 nM,
B3,,0.01 nM,
B4,,0.01 nM,
B5,,0.01 nM,
B6,,0.01 nM,
B7,,0.01 nM,
B8,,0.01 nM,> 1 nM
B9,,0.01 nM,> 1 nM
B10,,0.01 nM,> 1 nM
B11,,0.01 nM,> 1 nM
B12,,0.01 nM,> 1 nM
B13,,0.01 nM,> 1 nM
B14,,0.01 nM,
B15,,0.01 nM,
B16,,0.01 nM,
B17,,0.01 nM,

# Biological target: T1, cadherin-17 (CDH17) (human, UniProt Q12864 23-832)
# Experiment: cell-based or functional assay
Binder,"cell viability of Colo-205 cells, 24 h (CellTiter-Glo)","cell viability of Colo-205 cells, 24 h"
B1,> 1000 fold,
B2,,0.01 nM
B3,,0.01 nM
B4,,0.01 nM
B5,,0.01 nM
B6,,0.01 nM
B7,,0.01 nM
B8,,0.01 nM
B9,,0.01 nM
B10,,0.01 nM
B11,,0.01 nM
B12,,0.01 nM
B13,,0.01 nM
B15,,0.01 nM
B16,,0.01 nM
B17,,0.01 nM

# Biological target: T1, cadherin-17 (CDH17)
# Experiment: flow cytometry (FACS) on Colo-205 cells, antibody as primary reagent
# Procedure: TRAILR2 and CDH17 protein surface expression on the Colo-205 cells was analyzed as follows. Cells were detached using Accutase (Sigma A6964) and washed twice with FACS buffer (PBS, Gibco 14190; 3% FCS, Gibco 26140; and 0.09% NaN_3, Sigma Aldrich S2002).
# After seeding the cells, the plate was centrifuged at 1200 rpm for 5 minutes and the supernatant were discarded. Cells were then incubated for 60 min at 4° C. with 100p/well of the primary antibody appropriated dilution. Cells were washed twice with FACS buffer and 100p/well of the appropriated dilution of secondary/conjugated antibodies was added. Cells with secondary antibodies were incubated for 45 min at 4° C. in the dark. After two washes with FACS buffer, cells were resuspended in 100p FACS buffer per well and analyzed in a FACS Canto (BD Biosciences).
# Example 12: Detection of CDH17 Surface Expression Using Newly Generated CDH17 Antibodies In FIG. 13 is shown how the newly generated anti-CDH17H2 antibody (comprising a VH of SEQ ID NO: 116 and a VL of SEQ ID NO: 117 and an IgG1 sequence of SEQ ID NO: 121) is able to detect CDH17 protein surface expression. FACS analysis was performed as described in Example 6. The newly generated anti-CDH17H2 antibody was used as primary antibody for detection, followed by a secondary antibody rabbit anti-mouse IgG PE (Dako, R0439). […]
row,Binder,binding result
1,B18,binds
